{"source": "the supplement of paper PMC10567573", "parents": {"B1": {"name": "CCDC89 (parent)", "chain": "LNAELEEKMMQEAEKLKAQGEYSR"}}}
{"variants_of": "B1", "experiment": "protein stability index of a GFP-peptide fusion (GPS, HEK-293T) (PSI 1-6); higher = more stable", "settings": "c terminus: a fixed tail appended"}
{"variant": "LNRELEEKMMQEAEKLKAQGEYSR", "note": "[A3R]", "protein stability index": 4.94}
{"variant": "LNSELEEKMMQEAEKLKAQGEYSR", "note": "[A3S]", "protein stability index": 4.96}
{"variant": "LNTELEEKMMQEAEKLKAQGEYSR", "note": "[A3T]", "protein stability index": 5.63}
{"variant": "LNVELEEKMMQEAEKLKAQGEYSR", "note": "[A3V]", "protein stability index": 5.13}
{"variant": "LNWELEEKMMQEAEKLKAQGEYSR", "note": "[A3W]", "protein stability index": 4.58}
{"variant": "LNYELEEKMMQEAEKLKAQGEYSR", "note": "[A3Y]", "protein stability index": 4.2}
{"variant": "LNACLEEKMMQEAEKLKAQGEYSR", "note": "[E4C]", "protein stability index": 3.98}
{"variant": "LNADLEEKMMQEAEKLKAQGEYSR", "note": "[E4D]", "protein stability index": 4.94}
{"variant": "LNAFLEEKMMQEAEKLKAQGEYSR", "note": "[E4F]", "protein stability index": 4.47}
{"variant": "LNAHLEEKMMQEAEKLKAQGEYSR", "note": "[E4H]", "protein stability index": 4.4}
{"variant": "LNAILEEKMMQEAEKLKAQGEYSR", "note": "[E4I]", "protein stability index": 4.6}
{"variant": "LNAKLEEKMMQEAEKLKAQGEYSR", "note": "[E4K]", "protein stability index": 3.96}
{"variant": "LNALLEEKMMQEAEKLKAQGEYSR", "note": "[E4L]", "protein stability index": 4.56}
{"variant": "LNAMLEEKMMQEAEKLKAQGEYSR", "note": "[E4M]", "protein stability index": 3.91}
{"variant": "LNAPLEEKMMQEAEKLKAQGEYSR", "note": "[E4P]", "protein stability index": 3.94}
{"variant": "LNAQLEEKMMQEAEKLKAQGEYSR", "note": "[E4Q]", "protein stability index": 4.76}
{"variant": "LNARLEEKMMQEAEKLKAQGEYSR", "note": "[E4R]", "protein stability index": 4.57}
{"variant": "LNASLEEKMMQEAEKLKAQGEYSR", "note": "[E4S]", "protein stability index": 5.16}
{"variant": "LNATLEEKMMQEAEKLKAQGEYSR", "note": "[E4T]", "protein stability index": 4.3}
{"variant": "LNAVLEEKMMQEAEKLKAQGEYSR", "note": "[E4V]", "protein stability index": 3.95}
{"variant": "LNAWLEEKMMQEAEKLKAQGEYSR", "note": "[E4W]", "protein stability index": 3.12}
{"variant": "LNAYLEEKMMQEAEKLKAQGEYSR", "note": "[E4Y]", "protein stability index": 3.74}
{"variant": "LNAEAEEKMMQEAEKLKAQGEYSR", "note": "[L5A]", "protein stability index": 4.86}
{"variant": "LNAEDEEKMMQEAEKLKAQGEYSR", "note": "[L5D]", "protein stability index": 4.71}
{"variant": "LNAEEEEKMMQEAEKLKAQGEYSR", "note": "[L5E]", "protein stability index": 5.46}
{"variant": "LNAEFEEKMMQEAEKLKAQGEYSR", "note": "[L5F]", "protein stability index": 4.73}
{"variant": "LNAEHEEKMMQEAEKLKAQGEYSR", "note": "[L5H]", "protein stability index": 5.19}
{"variant": "LNAEIEEKMMQEAEKLKAQGEYSR", "note": "[L5I]", "protein stability index": 4.88}
{"variant": "LNAEKEEKMMQEAEKLKAQGEYSR", "note": "[L5K]", "protein stability index": 4.53}
{"variant": "LNAEMEEKMMQEAEKLKAQGEYSR", "note": "[L5M]", "protein stability index": 5.21}
{"variant": "LNAENEEKMMQEAEKLKAQGEYSR", "note": "[L5N]", "protein stability index": 5.44}
{"variant": "LNAEPEEKMMQEAEKLKAQGEYSR", "note": "[L5P]", "protein stability index": 5.58}
{"variant": "LNAEQEEKMMQEAEKLKAQGEYSR", "note": "[L5Q]", "protein stability index": 5.55}
{"variant": "LNAEREEKMMQEAEKLKAQGEYSR", "note": "[L5R]", "protein stability index": 4.7}
{"variant": "LNAESEEKMMQEAEKLKAQGEYSR", "note": "[L5S]", "protein stability index": 5.38}
{"variant": "LNAETEEKMMQEAEKLKAQGEYSR", "note": "[L5T]", "protein stability index": 5.47}
{"variant": "LNAEVEEKMMQEAEKLKAQGEYSR", "note": "[L5V]", "protein stability index": 5.09}
{"variant": "LNAEWEEKMMQEAEKLKAQGEYSR", "note": "[L5W]", "protein stability index": 4.71}
{"variant": "LNAEYEEKMMQEAEKLKAQGEYSR", "note": "[L5Y]", "protein stability index": 4.33}
{"variant": "LNAELCEKMMQEAEKLKAQGEYSR", "note": "[E6C]", "protein stability index": 4.69}
{"variant": "LNAELFEKMMQEAEKLKAQGEYSR", "note": "[E6F]", "protein stability index": 3.39}
{"variant": "LNAELGEKMMQEAEKLKAQGEYSR", "note": "[E6G]", "protein stability index": 5.15}
{"variant": "LNAELHEKMMQEAEKLKAQGEYSR", "note": "[E6H]", "protein stability index": 4.79}
{"variant": "LNAELIEKMMQEAEKLKAQGEYSR", "note": "[E6I]", "protein stability index": 4.08}
{"variant": "LNAELKEKMMQEAEKLKAQGEYSR", "note": "[E6K]", "protein stability index": 4.64}
{"variant": "LNAELLEKMMQEAEKLKAQGEYSR", "note": "[E6L]", "protein stability index": 2.68}
{"variant": "LNAELMEKMMQEAEKLKAQGEYSR", "note": "[E6M]", "protein stability index": 4.42}
{"variant": "LNAELNEKMMQEAEKLKAQGEYSR", "note": "[E6N]", "protein stability index": 4.71}
{"variant": "LNAELPEKMMQEAEKLKAQGEYSR", "note": "[E6P]", "protein stability index": 4.8}
{"variant": "LNAELQEKMMQEAEKLKAQGEYSR", "note": "[E6Q]", "protein stability index": 4.65}
{"variant": "LNAELREKMMQEAEKLKAQGEYSR", "note": "[E6R]", "protein stability index": 4.36}
{"variant": "LNAELSEKMMQEAEKLKAQGEYSR", "note": "[E6S]", "protein stability index": 4.96}
{"variant": "LNAELTEKMMQEAEKLKAQGEYSR", "note": "[E6T]", "protein stability index": 3.27}
{"variant": "LNAELVEKMMQEAEKLKAQGEYSR", "note": "[E6V]", "protein stability index": 3.04}
{"variant": "LNAELWEKMMQEAEKLKAQGEYSR", "note": "[E6W]", "protein stability index": 3.56}
{"variant": "LNAELEAKMMQEAEKLKAQGEYSR", "note": "[E7A]", "protein stability index": 4.87}
{"variant": "LNAELECKMMQEAEKLKAQGEYSR", "note": "[E7C]", "protein stability index": 5}
{"variant": "LNAELEDKMMQEAEKLKAQGEYSR", "note": "[E7D]", "protein stability index": 4.81}
{"variant": "LNAELEFKMMQEAEKLKAQGEYSR", "note": "[E7F]", "protein stability index": 4.97}
{"variant": "LNAELEGKMMQEAEKLKAQGEYSR", "note": "[E7G]", "protein stability index": 4.35}
{"variant": "LNAELEHKMMQEAEKLKAQGEYSR", "note": "[E7H]", "protein stability index": 4.5}
{"variant": "LNAELEIKMMQEAEKLKAQGEYSR", "note": "[E7I]", "protein stability index": 4.64}
{"variant": "LNAELEMKMMQEAEKLKAQGEYSR", "note": "[E7M]", "protein stability index": 4.54}
{"variant": "LNAELEQKMMQEAEKLKAQGEYSR", "note": "[E7Q]", "protein stability index": 4.18}
{"variant": "LNAELERKMMQEAEKLKAQGEYSR", "note": "[E7R]", "protein stability index": 3.8}
{"variant": "LNAELESKMMQEAEKLKAQGEYSR", "note": "[E7S]", "protein stability index": 4.01}
{"variant": "LNAELETKMMQEAEKLKAQGEYSR", "note": "[E7T]", "protein stability index": 4.74}
{"variant": "LNAELEVKMMQEAEKLKAQGEYSR", "note": "[E7V]", "protein stability index": 5}
{"variant": "LNAELEYKMMQEAEKLKAQGEYSR", "note": "[E7Y]", "protein stability index": 4.61}
{"variant": "LNAELEEAMMQEAEKLKAQGEYSR", "note": "[K8A]", "protein stability index": 4.9}
{"variant": "LNAELEECMMQEAEKLKAQGEYSR", "note": "[K8C]", "protein stability index": 5.15}
{"variant": "LNAELEEDMMQEAEKLKAQGEYSR", "note": "[K8D]", "protein stability index": 4.78}
{"variant": "LNAELEEHMMQEAEKLKAQGEYSR", "note": "[K8H]", "protein stability index": 5.36}
{"variant": "LNAELEEIMMQEAEKLKAQGEYSR", "note": "[K8I]", "protein stability index": 4.25}
{"variant": "LNAELEELMMQEAEKLKAQGEYSR", "note": "[K8L]", "protein stability index": 5.19}
{"variant": "LNAELEEMMMQEAEKLKAQGEYSR", "note": "[K8M]", "protein stability index": 4.92}
{"variant": "LNAELEENMMQEAEKLKAQGEYSR", "note": "[K8N]", "protein stability index": 4.49}
{"variant": "LNAELEEPMMQEAEKLKAQGEYSR", "note": "[K8P]", "protein stability index": 5.12}
{"variant": "LNAELEEQMMQEAEKLKAQGEYSR", "note": "[K8Q]", "protein stability index": 5.02}
{"variant": "LNAELEERMMQEAEKLKAQGEYSR", "note": "[K8R]", "protein stability index": 4.98}
{"variant": "LNAELEESMMQEAEKLKAQGEYSR", "note": "[K8S]", "protein stability index": 3.82}
{"variant": "LNAELEEVMMQEAEKLKAQGEYSR", "note": "[K8V]", "protein stability index": 4.86}
{"variant": "LNAELEEWMMQEAEKLKAQGEYSR", "note": "[K8W]", "protein stability index": 4.5}
{"variant": "LNAELEEYMMQEAEKLKAQGEYSR", "note": "[K8Y]", "protein stability index": 4.46}
{"variant": "LNAELEEKAMQEAEKLKAQGEYSR", "note": "[M9A]", "protein stability index": 5.2}
{"variant": "LNAELEEKCMQEAEKLKAQGEYSR", "note": "[M9C]", "protein stability index": 5.52}
{"variant": "LNAELEEKDMQEAEKLKAQGEYSR", "note": "[M9D]", "protein stability index": 4.89}
{"variant": "LNAELEEKFMQEAEKLKAQGEYSR", "note": "[M9F]", "protein stability index": 4.97}
{"variant": "LNAELEEKGMQEAEKLKAQGEYSR", "note": "[M9G]", "protein stability index": 5.05}
{"variant": "LNAELEEKHMQEAEKLKAQGEYSR", "note": "[M9H]", "protein stability index": 5.95}
{"variant": "LNAELEEKIMQEAEKLKAQGEYSR", "note": "[M9I]", "protein stability index": 5.12}
{"variant": "LNAELEEKKMQEAEKLKAQGEYSR", "note": "[M9K]", "protein stability index": 3.98}
{"variant": "LNAELEEKLMQEAEKLKAQGEYSR", "note": "[M9L]", "protein stability index": 3.96}
{"variant": "LNAELEEKNMQEAEKLKAQGEYSR", "note": "[M9N]", "protein stability index": 5.1}
